We go through one molecule from patent publication US7588931B2, “High arachidonic acid producing strains of Yarrowia lipolytica” (E. I. du Pont de Nemours and Company, priority 2004, dated 2009).

For this experiment, the system named is Yarrowia lipolytica strain ATCC #76982(Leu-). As to the kind of experiment: EDA substrate feeding of Y. lipolytica expressing codon-optimized Δ8 desaturase genes. In kind it is cell-based. Particulars: MM containing 10 μg of EDA substrate, about 24 hr at 30° C. As for the experimental part:
Yarrowia lipolytica strain ATCC #76982(Leu-) was transformed with pDMW240 (FIG. 8D) and pDMW255, respectively, as described in the General Methods. Yeast containing the recombinant constructs were grown in MM supplemented with EDA [20:2(11,14)]. Specifically, single colonies of transformant Y. lipolytica containing either pDMW240 (containing D8S-1) or pDMW255 (containing D8S-2) were grown in 3 mL MM at 30° C. to an OD600˜1.0. For substrate feeding, 100 μl of cells were then subcultured in 3 mL MM containing 10 μg of EDA substrate for about 24 hr at 30° C. The cells were collected by centrifugation, lipids were extracted, and fatty acid methyl esters were prepared by trans-esterification, and subsequently analyzed with a Hewlett-Packard 6890 GC.
A three amino acid difference between the protein sequence of the Δ8 desaturase deposited in GenBank (Accession No. AAD45877 [SEQ ID NO:43]) and in WO 00/34439 or Wallis et al. (Archives of Biochem. Biophys, 365:307-316 (1999)) (SEQ ID NO:252 herein) was found. Specifically, three amino acids appeared to be missing in GenBank Accession No. […]. […]

B1: D8S-3: synthetic Δ8 desaturase gene in pDMW261, SEQ ID NO:255 (protein)
chain: MKSKRQALSPLQLMEQTYDVSAWVNFHPGGAEIIENYQGRDATDAFMVMHFQEAFDKLKRMPKINPSFELPPQAAVNEAQEDFRKLREELIATGMFDASPLWYSYKISTTLGLGVLGYFLMVQYQMYFIGAVLLGMHYQQMGWLSHDICHHQTFKNRNWNNLVGLVFGNGLQGFSVTCWKDRHNAHHSATNVQGHDPDIDNLPPLAWSEDDVTRASPISRKLIQFQQYYFLVICILLRFIWCFQCVLTVRSLKDRDNQFYRSQYKKEAIGLALHWTLKALFHLFFMPSILTSLLVFFVSELVGGFGIAIVVFMNHYPLEKIGDPVWDGHGFSVGQIHETMNIRRGIITDWFFGGLNYQIEHHLWPTLPRHNLTAVSYQVEQLCQKHNLPYRNPLPHEGLVILLRYLAVFARMAEKQPAGKAL
modifications: D8S-3: synthetic delta 8-desaturase gene codon-optimized for Yarrowia lipolytica in pDMW261
B1: the “desaturation of EDA to DGLA” value is on record as “No desaturation of EDA to DGLA was observed”.
